Target: SADS-CoV papain-like protease 2 (PLP2) domain of nsp3, wild type (SADS-CoV)

In the case of “ubiquitin-AMC (from UniProt P0CG48 1-76) (natural protein)”, the kcat/Km of hydrolysis of Ub-AMC (AMC fluorescence, Michaelis-Menten fit) is reported as 62700 M⁻¹ s⁻¹.
